These results are taken from patent US20170226161A1 (GlaxoSmithKline, published 2017).

Where “and” joins values, the source holds several entries; their conditions need not be identical. Identical values can stand only once.

Experiment [1] has as its target T1, factor H comprising only domains 6-7 (UniProt P08603 321-443).
T1 sequence: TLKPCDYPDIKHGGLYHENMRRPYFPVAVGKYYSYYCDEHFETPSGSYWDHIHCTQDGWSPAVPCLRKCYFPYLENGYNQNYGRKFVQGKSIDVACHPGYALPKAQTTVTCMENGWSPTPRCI

Experiment [2] concerns the target factor H full length (Calbiochem) (UniProt P08603 19-1231).
Experiment [3] addresses T2, human factor H (fH), immobilised (human, UniProt P08603 19-1231).
T2 construct: also called human fH
The experiment in a line: SPR (FIG. 6).

Sequence of factor H full length (Calbiochem) (P08603 19-1231): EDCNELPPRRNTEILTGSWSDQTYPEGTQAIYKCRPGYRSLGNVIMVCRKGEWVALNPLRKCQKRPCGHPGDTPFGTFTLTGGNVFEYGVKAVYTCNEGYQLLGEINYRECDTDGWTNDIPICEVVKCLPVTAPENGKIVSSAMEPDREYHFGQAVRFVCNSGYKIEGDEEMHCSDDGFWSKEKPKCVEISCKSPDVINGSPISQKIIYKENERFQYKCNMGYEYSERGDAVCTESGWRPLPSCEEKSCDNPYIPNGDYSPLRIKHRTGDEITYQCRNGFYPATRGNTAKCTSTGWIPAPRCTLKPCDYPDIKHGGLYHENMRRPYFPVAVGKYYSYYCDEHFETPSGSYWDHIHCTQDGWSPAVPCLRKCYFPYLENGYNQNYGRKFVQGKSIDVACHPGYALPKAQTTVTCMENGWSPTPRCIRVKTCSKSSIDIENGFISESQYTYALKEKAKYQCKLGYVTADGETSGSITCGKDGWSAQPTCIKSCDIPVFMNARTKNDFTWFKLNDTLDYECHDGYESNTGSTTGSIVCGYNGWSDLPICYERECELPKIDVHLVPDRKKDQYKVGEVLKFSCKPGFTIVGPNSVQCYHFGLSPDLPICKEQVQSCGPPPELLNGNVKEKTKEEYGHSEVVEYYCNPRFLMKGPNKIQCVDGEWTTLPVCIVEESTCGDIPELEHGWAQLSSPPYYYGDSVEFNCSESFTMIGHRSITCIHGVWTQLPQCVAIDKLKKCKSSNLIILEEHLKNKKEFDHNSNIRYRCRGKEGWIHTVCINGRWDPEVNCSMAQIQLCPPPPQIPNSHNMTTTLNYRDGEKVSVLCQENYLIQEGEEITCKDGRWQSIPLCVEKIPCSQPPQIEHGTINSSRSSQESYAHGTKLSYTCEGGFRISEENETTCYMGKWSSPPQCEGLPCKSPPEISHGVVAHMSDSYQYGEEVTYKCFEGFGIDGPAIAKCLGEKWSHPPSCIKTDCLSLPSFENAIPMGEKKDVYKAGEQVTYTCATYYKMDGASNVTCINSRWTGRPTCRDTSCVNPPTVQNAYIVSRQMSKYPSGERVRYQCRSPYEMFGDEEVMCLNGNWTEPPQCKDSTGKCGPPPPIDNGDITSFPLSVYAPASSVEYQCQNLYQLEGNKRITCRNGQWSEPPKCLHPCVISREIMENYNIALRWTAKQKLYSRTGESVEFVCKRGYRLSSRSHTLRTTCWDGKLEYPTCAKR
T2 sequence (P08603 19-1231): as above

B1: 231 S fusion polypeptide (v2-v3-v1 fHbp, stabilised) (other)
chain: MGPDSDRLQQRRVAADIGAGLADALTAPLDHKDKSLQSLTLDQVVRKNEKLKLAAQGAEKTYGNGDSLNTGKLKNDKVSRFDFIRQIEVDGQLITLESGEFQIYKQDHSAVVALQIEKINNPDKIDSLINQRSFRVSGLGGEHTAFNQLPDGKAEYHGKAFSSDDAGGKLTYTIDFAAKQGHGKIEHLKTPEQNVELAAAELKADEKSHAVILGDTRYGSEEKGTYHLALFGDRAQEIAGSATVKIGEKVHEIGIAGKQGSGGGGVAADIGTGLADALTAPLDHKDKGLKSLTLEDVIPQNGTLTLSAQGAEKTFKAGDKDNSLNTGKLKNDKISRFDFVQKIEVDGQTITLASGEFQIYKQNHSAVVALQIEKINNPDKTDSLINQRSFRVSGLGGEHTAFNQLPGGKAEYHGKAFSSDDPNGRLHYSIDFTKKQGYGRIEHLKTLEQNVELAAAELKADEKSHAVILGDTRYGSEEKGTYHLALFGDRAQEIAGSATVKIGEKVHEIGIAGKQGSGGGGVAADIGAGLADALTAPLDHKDKGLQSLTLDQSVSKNEKLKLAAQGAEKTYGNGDSLNTGKLKNDKVSRFDFIRQIEVDGQLITLESGEFQVYKQSHSALTAFQTEQIQDSEHSGKMVAKRQFRIGDIAGEHTSFDKLPEGGRATYRGTAFGSDDAGGKLTYTIDFAAKQGNGKIEHLKSPELNVDLAAADIKPDGKRHAVISGSVLYNQAEKGSYSLGIFGGKAQEVAGSAEVKTVNGIRHIGLAAKQ
For the molecule B1, in experiment [1], the dissociation constant (Kd) was 158 nM and 280 nM; the “Ration KD wt/x (residual binding)” value is 0.076; the koff turned out to be 0.11 s⁻¹; the kon was 710000 M⁻¹ s⁻¹. In experiment [2], the dissociation constant (Kd) was 3100 nM, the “Ration KD wt/x (residual binding)” value stood at 0.1, the koff turned out to be 0.064 s⁻¹ and the kon came out at 21000 M⁻¹ s⁻¹.

B2: v3 fHbp with S32V (SEQ ID NO: 17 numbering) (other)
chain: VAADIGTGLADALTAPLDHKDKGLKSLTLEDVIPQNGTLTLSAQGAEKTFKAGDKDNSLNTGKLKNDKISRFDFVQKIEVDGQTITLASGEFQIYKQNHSAVVALQIEKINNPDKTDSLINQRSFLVSGLGGEHTAFNQLPGGKAEYHGKAFSSDDPNGRLHYSIDFTKKQGYGRIEHLKTLEQNVELAAAELKADEKSHAVILGDTRYGSEEKGTYHLALFGDRAQEIAGSATVKIGEKVHEIGIAGKQ
In the case of B2, the “fold reduction of the SPR peak against wild-type v3” value in experiment [3] was roughly 2 fold.

The term Kd denotes the constant that tells how readily two partners part at equilibrium. Higher therefore signals weaker binding. As usually defined, the koff is the first-order rate constant of dissociation. A word on the kon: it is a measure of how fast the partners come together. Low values mean slower complex formation, high ones faster complex formation.
